# In publication PMC4245953, “Hug1 is an intrinsically disordered protein that inhibits ribonucleotide reductase activity by directly binding Rnr2 subunit” (Nucleic Acids Research, 2014):
# T1: (His)6-Rnr2-Rnr4 complex (S. cerevisiae, UniProt P09938 1-399; P49723 1-345)
# T1 construct: Rnr2, S. cerevisiae; Rnr4, S. cerevisiae; also called Rnr2/4; source: E. coli BL21 (DE3) gold, co-expressed; purified (Ni-NTA, anion exchange) for NMR; 'purified' by the text or 'soluble extracts' by the legend in the pull-down
# T1 sequence (looked up) 1: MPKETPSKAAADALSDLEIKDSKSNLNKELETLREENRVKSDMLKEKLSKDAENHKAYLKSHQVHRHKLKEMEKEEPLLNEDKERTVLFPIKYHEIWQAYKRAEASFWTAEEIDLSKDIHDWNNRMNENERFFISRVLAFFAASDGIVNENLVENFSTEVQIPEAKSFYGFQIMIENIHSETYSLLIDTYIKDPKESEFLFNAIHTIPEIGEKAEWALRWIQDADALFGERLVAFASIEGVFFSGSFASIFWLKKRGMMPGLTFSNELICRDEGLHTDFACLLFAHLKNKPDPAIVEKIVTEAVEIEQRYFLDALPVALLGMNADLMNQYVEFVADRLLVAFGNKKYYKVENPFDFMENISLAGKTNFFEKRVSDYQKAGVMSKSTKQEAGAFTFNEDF
# T1 sequence (looked up) 2: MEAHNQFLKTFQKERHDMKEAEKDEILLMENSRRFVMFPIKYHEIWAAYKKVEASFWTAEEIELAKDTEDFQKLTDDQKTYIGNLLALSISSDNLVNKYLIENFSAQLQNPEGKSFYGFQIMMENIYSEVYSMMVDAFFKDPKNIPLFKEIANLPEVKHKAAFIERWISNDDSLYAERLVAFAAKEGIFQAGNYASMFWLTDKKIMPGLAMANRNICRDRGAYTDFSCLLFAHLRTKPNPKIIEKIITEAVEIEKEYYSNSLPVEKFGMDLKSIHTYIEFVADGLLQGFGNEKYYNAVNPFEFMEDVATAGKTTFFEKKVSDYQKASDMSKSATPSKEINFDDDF
# B1: Recombinant Hug1 (tags cleaved), 15N-labeled (natural protein, S. cerevisiae, UniProt Q6Q5K6 1-68, looked up)
# chain: MTMDQGLNPKQFFLDDVVLQDTLCSMSNRVNKSVKTGYLFPKDHVPSANIIAVERRGGLSDIGKNTSN
# modifications: also: uniformly 15N-labeled
# notes: Hug1, S. cerevisiae, released from (His)6-GST-TEV site-Hug1 by TEV protease; calculated mass 7.5 kDa; protein of 68 residues; also called 15N-Hug1; purified recombinant Hug1; source: E. coli BL21 (DE3) gold, purified (Glutathione-agarose, TEV cleavage, Ni-NTA flow-through); not shown: His6, N-terminal, cleaved; GST, N-terminal, cleaved
# Columns and labels:
# [1] = biological target: Rnr2-Rnr4 (Saccharomyces cerevisiae) (UniProt P09938); conditions: cited from earlier work
# [2] = biological target: RNR R2 (Escherichia coli) (UniProt P69924); conditions: cited from earlier work
# RNR R2 (Escherichia coli), sequence (P69924 2-376): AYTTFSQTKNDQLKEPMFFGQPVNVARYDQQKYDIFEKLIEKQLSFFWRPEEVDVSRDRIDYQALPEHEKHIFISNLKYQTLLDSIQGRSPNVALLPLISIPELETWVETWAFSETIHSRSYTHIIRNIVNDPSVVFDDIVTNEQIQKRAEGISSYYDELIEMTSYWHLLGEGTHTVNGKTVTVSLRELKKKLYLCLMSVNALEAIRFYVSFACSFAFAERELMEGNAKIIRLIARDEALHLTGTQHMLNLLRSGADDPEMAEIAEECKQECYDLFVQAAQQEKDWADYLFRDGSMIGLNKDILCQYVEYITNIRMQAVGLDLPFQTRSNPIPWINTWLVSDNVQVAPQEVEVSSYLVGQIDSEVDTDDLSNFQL
# RNR R2 (Mus musculus) = RNR R2 (Mus musculus) (UniProt P11157); conditions: cited from earlier work
# RNR R2 (Mus musculus), sequence (P11157 whole entry): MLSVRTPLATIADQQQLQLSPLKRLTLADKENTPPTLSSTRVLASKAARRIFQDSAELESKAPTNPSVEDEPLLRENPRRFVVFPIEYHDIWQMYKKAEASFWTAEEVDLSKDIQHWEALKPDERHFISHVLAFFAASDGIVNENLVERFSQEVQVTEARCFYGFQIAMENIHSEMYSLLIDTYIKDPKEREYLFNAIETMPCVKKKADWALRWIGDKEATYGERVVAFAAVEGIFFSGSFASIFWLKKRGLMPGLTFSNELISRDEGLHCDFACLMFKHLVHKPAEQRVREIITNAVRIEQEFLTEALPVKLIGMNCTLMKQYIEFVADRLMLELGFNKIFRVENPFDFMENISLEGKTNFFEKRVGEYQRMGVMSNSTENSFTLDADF
# [3] = biological target: Rnr1 (Saccharomyces cerevisiae) (UniProt P21524); conditions: cited from earlier work
# Rnr1 (Saccharomyces cerevisiae), sequence (P21524 whole entry): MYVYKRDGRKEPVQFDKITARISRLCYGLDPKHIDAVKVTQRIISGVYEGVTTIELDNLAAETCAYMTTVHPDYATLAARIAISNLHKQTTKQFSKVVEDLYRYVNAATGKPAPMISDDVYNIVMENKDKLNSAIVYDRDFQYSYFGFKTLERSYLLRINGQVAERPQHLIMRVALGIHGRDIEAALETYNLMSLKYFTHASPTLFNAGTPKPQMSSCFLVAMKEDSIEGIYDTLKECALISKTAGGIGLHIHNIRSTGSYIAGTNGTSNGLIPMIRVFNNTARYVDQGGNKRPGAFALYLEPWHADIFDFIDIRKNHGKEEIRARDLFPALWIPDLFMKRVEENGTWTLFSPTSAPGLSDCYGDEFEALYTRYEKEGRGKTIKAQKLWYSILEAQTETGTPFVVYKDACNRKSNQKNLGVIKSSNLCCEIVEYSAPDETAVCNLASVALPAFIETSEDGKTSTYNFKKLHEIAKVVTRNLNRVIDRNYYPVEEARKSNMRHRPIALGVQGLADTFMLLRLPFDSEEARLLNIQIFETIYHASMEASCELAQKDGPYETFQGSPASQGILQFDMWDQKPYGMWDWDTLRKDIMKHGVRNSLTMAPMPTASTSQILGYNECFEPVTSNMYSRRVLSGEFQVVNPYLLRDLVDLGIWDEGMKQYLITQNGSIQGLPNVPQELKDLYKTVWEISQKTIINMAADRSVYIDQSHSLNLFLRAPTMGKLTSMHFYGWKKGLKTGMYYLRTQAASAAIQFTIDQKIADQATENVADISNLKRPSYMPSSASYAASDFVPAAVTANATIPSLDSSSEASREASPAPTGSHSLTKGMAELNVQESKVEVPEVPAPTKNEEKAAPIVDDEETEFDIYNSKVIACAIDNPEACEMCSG
# [4] = biological target: Cdc22 (R1) (Schizosaccharomyces pombe) (UniProt P36602); conditions: cited from earlier work
# Cdc22 (R1) (Schizosaccharomyces pombe), sequence (P36602 whole entry): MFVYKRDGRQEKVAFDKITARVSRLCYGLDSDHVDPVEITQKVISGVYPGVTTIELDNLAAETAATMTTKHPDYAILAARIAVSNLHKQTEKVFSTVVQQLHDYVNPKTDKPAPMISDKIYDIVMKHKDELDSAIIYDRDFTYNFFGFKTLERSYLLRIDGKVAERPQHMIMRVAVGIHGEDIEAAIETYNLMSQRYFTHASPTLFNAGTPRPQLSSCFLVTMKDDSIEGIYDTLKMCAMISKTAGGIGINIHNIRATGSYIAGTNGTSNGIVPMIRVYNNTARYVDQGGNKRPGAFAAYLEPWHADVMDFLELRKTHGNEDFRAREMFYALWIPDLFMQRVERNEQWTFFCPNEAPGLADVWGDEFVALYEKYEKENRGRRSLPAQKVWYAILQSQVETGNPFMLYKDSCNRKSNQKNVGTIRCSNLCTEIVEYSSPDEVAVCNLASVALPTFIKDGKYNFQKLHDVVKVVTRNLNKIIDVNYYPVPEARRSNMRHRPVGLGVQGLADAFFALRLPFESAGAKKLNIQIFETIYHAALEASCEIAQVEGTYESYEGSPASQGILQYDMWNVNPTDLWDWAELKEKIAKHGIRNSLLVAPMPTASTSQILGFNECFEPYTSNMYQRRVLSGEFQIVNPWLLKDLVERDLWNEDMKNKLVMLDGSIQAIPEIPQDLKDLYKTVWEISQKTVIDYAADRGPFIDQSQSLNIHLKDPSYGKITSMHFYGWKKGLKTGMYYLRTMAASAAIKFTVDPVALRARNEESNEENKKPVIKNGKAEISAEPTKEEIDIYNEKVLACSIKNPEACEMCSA
# (His)6-Rnr2-Rnr4 complex = biological target: T1, (His)6-Rnr2-Rnr4 complex; assay: NMR titration; 1H-15N HSQC of 15N-Hug1 with increasing unlabeled (His)6-Rnr2-Rnr4; Tris-d11 10 mM pH 7.5; 22°C (50 uM Hug1, ratios 1:0.125 to 1:1.6, global fit of four peaks, 1:1 model) and 9°C (16.4 uM Hug1, ratio 1:2); conditions: both partners purified
molecule,measurement,setting,value
Dif1 (from UniProt O13577),Kd,[1],600 nM
RNR R1 (from UniProt P00452),Kd,[2],100 nM
RNR R1 (from UniProt P07742),Kd,RNR R2 (Mus musculus),100 nM
Sml1 (from UniProt Q04964),Kd,[3],400 nM
Spd1 (from UniProt Q10585),Kd,[4],2400 nM
B1,Kd,(His)6-Rnr2-Rnr4 complex,1600 ± 600 nM
